Measured values: patent US20220073586A1

Molecular target: PD-L1 antigen (coated on 96-well immunoplate) (UniProt Q9NZQ7)
Assay: single antigen ELISA, PD-L1 coated at 1 ug/mL, detection with anti-hFc-HRP

PD-L1 antigen (coated on 96-well immunoplate), sequence (Q9NZQ7 19-238 limits assumed): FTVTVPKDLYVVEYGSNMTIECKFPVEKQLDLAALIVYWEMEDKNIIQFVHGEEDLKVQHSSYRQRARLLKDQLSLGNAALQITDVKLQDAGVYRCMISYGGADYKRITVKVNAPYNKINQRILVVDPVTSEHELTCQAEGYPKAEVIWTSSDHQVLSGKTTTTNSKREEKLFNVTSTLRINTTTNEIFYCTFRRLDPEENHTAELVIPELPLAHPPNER

Tecentriq (Genetech, atezolizumab, anti-PD-L1 antibody)
EC50 (read off the curve): 0.03 µg/mL
